Results taken from US20180127483A1 (CHILDREN S MEDICAL CENTER, published 2018).

Target: T1, recombinant human Flt-1/Fc chimera (R&D System 321-FL) (human, UniProt P17948 27-758)
T1 construct: extracellular domain; Bought from R&D Systems; also called VEGF-R1 extracellular domain Ig fusion; full-length VEGF-Receptor 1 extracellular domain; Fc part of the bought chimera not given
Assay: solution equilibrium: 10 pM human VEGF165 incubated overnight with 0.05-1000 pM binder, unbound VEGF165 measured by ELISA, curve fit
Experimental: FIG. 4. Binding affinity analysis of VEGF-binding proteins. In brief, a fixed concentration of human VEGF₁₆₅ (10 pM) was incubated overnight at room temperature with varying concentrations (0.05 pM to 1000 pM) of VEGF binding proteins. 20 hours later, concentration of unbound VEGF₁₆₅ was measured by ELISA. Binding curves were fitted using Prizm software.

T1 sequence (P17948 27-758, change not shown): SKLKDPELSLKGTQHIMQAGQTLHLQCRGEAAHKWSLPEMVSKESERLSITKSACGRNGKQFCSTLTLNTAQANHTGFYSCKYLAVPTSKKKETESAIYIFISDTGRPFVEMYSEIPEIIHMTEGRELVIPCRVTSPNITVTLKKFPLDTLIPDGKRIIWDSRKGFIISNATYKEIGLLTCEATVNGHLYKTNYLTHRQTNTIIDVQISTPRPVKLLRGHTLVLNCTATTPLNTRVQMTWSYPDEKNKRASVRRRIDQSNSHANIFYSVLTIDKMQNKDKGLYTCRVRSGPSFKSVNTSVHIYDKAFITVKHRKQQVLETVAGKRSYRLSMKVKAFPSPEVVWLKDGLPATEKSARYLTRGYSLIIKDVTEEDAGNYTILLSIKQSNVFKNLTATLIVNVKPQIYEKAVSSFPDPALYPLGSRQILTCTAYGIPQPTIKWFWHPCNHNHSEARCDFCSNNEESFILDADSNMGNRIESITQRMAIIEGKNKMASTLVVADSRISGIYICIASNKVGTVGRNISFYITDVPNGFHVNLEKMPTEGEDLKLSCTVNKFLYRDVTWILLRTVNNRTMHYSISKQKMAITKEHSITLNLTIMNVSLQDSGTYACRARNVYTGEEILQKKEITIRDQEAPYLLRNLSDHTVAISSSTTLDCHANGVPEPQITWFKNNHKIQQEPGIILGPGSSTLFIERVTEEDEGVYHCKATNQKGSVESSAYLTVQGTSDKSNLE

- Kd: 0.0259 nM
B1: human VEGF165 (ligand, UniProt P15692-4 27-191, looked up)
chain: APMAEGGGQNHHEVVKFMDVYQRSYCHPIETLVDIFQEYPDEIEYIFKPSCVPLMRCGGCCNDEGLECVPTEESNITMQIMRIKPHQGQHIGEMSFLQHNKCECRPKKDRARQENPCGPCSERRKHLFVQDPQTCKCSCKNTDSRCKARQLELNERTCRCDKPRR
